Experimental data published in the supplement of paper PMC7125110.
± gives the standard error. Fewer inactive variants are shown than the library holds.

B1: glmS ribozyme (parent)
chain: AUAAAAGCGCCAGAACUACAGAAAUGUAGUUGACGAGGAGGAGGUUUAUCGAAUUUUCGGCGGAUGCCUCCAAA

What was measured:
Details in all cases: with glucosamine-6-phosphate
glucosamine-6-phosphate [1] = variants of: B1; assay: self-cleavage kobs at 40 uM GlcN6P; higher = faster cleavage; RNA array
How it was run: (§1)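 Barcoded glmS ribozyme variants on sequenced MiSeq chips were transcribed in situ by E. coli RNA polymerase and tracked through a hybridised Cy3 probe at 37 °C. Glucosamine-6-phosphate (40 μM to 10 mM) in HEPES/KCl/Mg(OAc)2 buffer was flowed in, and tiles were imaged over ~14 h. Signals were normalised to baseline and to non-cleaving reference variants; per-tile medians were fit to one- or two-exponential decays to give kobs. kcat and KM came from weighted Michaelis–Menten fits across concentrations.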

glucosamine-6-phosphate [2] = variants of: B1; assay: self-cleavage kobs at 160 uM GlcN6P; higher = faster cleavage; RNA array
How it was run: as §1

glucosamine-6-phosphate [3] = variants of: B1; assay: self-cleavage kobs at 10000 uM GlcN6P; higher = faster cleavage; RNA array
How it was run: as §1

glucosamine-6-phosphate [4] = variants of: B1; assay: self-cleavage kobs at 640 uM GlcN6P; higher = faster cleavage; RNA array
How it was run: as §1

glucosamine-6-phosphate [5] = variants of: B1; assay: self-cleavage kobs at 2500 uM GlcN6P; higher = faster cleavage; RNA array
How it was run: as §1

Variant	self-cleavage kobs at 40 uM GlcN6P (glucosamine-6-phosphate [1]) [s⁻¹]	self-cleavage kobs at 160 uM GlcN6P (glucosamine-6-phosphate [2]) [s⁻¹]	self-cleavage kobs at 10000 uM GlcN6P (glucosamine-6-phosphate [3]) [s⁻¹]	self-cleavage kobs at 640 uM GlcN6P (glucosamine-6-phosphate [4]) [s⁻¹]	self-cleavage kobs at 2500 uM GlcN6P (glucosamine-6-phosphate [5]) [s⁻¹]
A6U G62A	< 1e-05	< 1e-05	–	–	–
G7A G38U C58A	< 1e-05	–	< 1e-05	–	–
A6U G41A A42U	< 1e-05	–	< 1e-05	–	–
A6U G7U A15U U30G G40A	< 1e-05	–	< 1e-05	–	–
A6U G7U C16G C34A	< 1e-05	–	< 1e-05	–	–
G7A A39G C58G	< 1e-05	–	–	–	–
G7C C67U	< 1e-05	< 1e-05	< 1e-05	< 1e-05	< 1e-05
A6U A36G A64U	< 1e-05	< 1e-05	< 1e-05	< 1e-05	< 1e-05
A6U C10G A42G C50G C67A C70A	0.000143 ± 4.1e-05	–	9.95e-05 ± 2.4e-05	–	–
A6U C34U	< 1e-05	< 1e-05	< 1e-05	< 1e-05	–
A6U C34A	< 1e-05	< 1e-05	< 1e-05	< 1e-05	< 1e-05
G7C C16G U47A	< 1e-05	< 1e-05	< 1e-05	–	< 1e-05
G7C A64U	< 1e-05	–	< 1e-05	–	< 1e-05
G7C A64G	< 1e-05	< 1e-05	–	< 1e-05	< 1e-05
A6U C8G A36G U45A A64U	< 1e-05	–	–	< 1e-05	–
G7C G38U C70G	< 1e-05	–	–	–	–
G7A C34G U56C	< 1e-05	–	–	–	–
G7A C67G	< 1e-05	–	–	< 1e-05	< 1e-05
G7A A52U A64G C71A	< 1e-05	< 1e-05	–	< 1e-05	< 1e-05
G7A A15U C58A	< 1e-05	–	< 1e-05	< 1e-05	< 1e-05
G7A G32U U47G C50U G63A C67G	0.000556 ± 0.00014	–	0.000988 ± 0.00041	–	–
G7A C58A C67G	5.23e-05 ± 2.2e-05	–	–	–	–
A6U G7U C10A G29A C34A C67G C68A C71U	9.49e-05 ± 2.1e-05	–	3.01e-05 ± 1.4e-05	6.07e-05 ± 1.4e-05	–

Variant	self-cleavage kobs at 40 uM GlcN6P (glucosamine-6-phosphate [1]) [s⁻¹]	self-cleavage kobs at 160 uM GlcN6P (glucosamine-6-phosphate [2]) [s⁻¹]	self-cleavage kobs at 10000 uM GlcN6P (glucosamine-6-phosphate [3]) [s⁻¹]	self-cleavage kobs at 640 uM GlcN6P (glucosamine-6-phosphate [4]) [s⁻¹]	self-cleavage kobs at 2500 uM GlcN6P (glucosamine-6-phosphate [5]) [s⁻¹]
A6U G51A	< 1e-05	–	< 1e-05	–	–
G7U A33U A52G	< 1e-05	–	–	–	–
G7C U56A G60U G62A	< 1e-05	–	–	–	–
G7C G51U	< 1e-05	< 1e-05	< 1e-05	< 1e-05	< 1e-05
G7U A42G U49G C70G	< 1e-05	–	–	–	–
G7A G40A A53G G60C C68U	< 1e-05	–	–	< 1e-05	< 1e-05
G7C A14U	< 1e-05	< 1e-05	–	< 1e-05	< 1e-05
G7C U49G	< 1e-05	< 1e-05	–	–	–
G7A A39C G51U	< 1e-05	< 1e-05	–	–	< 1e-05
G7C G40C U54G G62A	< 1e-05	–	–	–	–
G7U A12C G29C	< 1e-05	< 1e-05	–	< 1e-05	< 1e-05
A6U A12U G43A U47G	< 1e-05	–	–	–	–
G7C G13C G63U C70G	< 1e-05	–	< 1e-05	< 1e-05	< 1e-05
G7U A42U	< 1e-05	–	< 1e-05	< 1e-05	< 1e-05
G7C G43U	< 1e-05	< 1e-05	< 1e-05	< 1e-05	–
G7A U30A U45C	< 1e-05	–	< 1e-05	–	< 1e-05
G7A A52C	< 1e-05	< 1e-05	< 1e-05	< 1e-05	< 1e-05
G7C C71G	< 1e-05	–	< 1e-05	–	< 1e-05
G7U A33C	< 1e-05	< 1e-05	< 1e-05	< 1e-05	< 1e-05
G7A C34A	< 1e-05	< 1e-05	< 1e-05	< 1e-05	< 1e-05
A6G U55G G66C C70A	0.000223 ± 8.2e-05	–	0.000165 ± 5.3e-05	0.000697 ± 0.00025	0.000623 ± 0.0002
G7A U31A	< 1e-05	–	–	< 1e-05	–
